Consider one molecule from patent publication US11479601B2, “Antibodies specific to Sonic Hedgehog and method of use thereof” (The Regents of the University of California, priority 2016, dated 2022).

The subject of assay [1] is Shh. In words: Western blot binding to purified and cell-expressed Shh. More on the design: species or system human. The note with it: purified Shh and Shh expressed endogenously and/or exogenously in cells. From the text:
FIGS. 15A and 15B. Antibodies bind target SHh via Western blot. (FIG. 15A) Purified, recombinant human Shh (19.7 kDa, >98% purity by SDS-PAGE) was probed by the indicated antibodies. (FIG. 15B) Cell lysates from HEK-293T cells (PHX—Phoenix cells), with or without exogenous expression of full-length Shh, and A549 cells were probed with the antibodies produced by clones 2G4 and 2D9. Full-length Shh: ˜50 kDa; N-terminal Shh: ˜19 kDa; C-terminal Shh: ˜25 kDa. Sample 2 was lysate from PHX cells transfected with full-length Shh DNA for about 24 hours. The exogenously expressed Shh appears to be cleaved into N-terminal and C-terminal Shh peptides. Both PHX cells and A549 cells endogenously express Shh.
In general terms: A western blot detects proteins with antibodies after separation by electrophoresis.

The target of assay [2] is T1, cell-surface Sonic Hedgehog on A549 cells (Homo sapiens, UniProt Q15465).
T1 construct: recognize cell-surface expression of Sonic Hedgehog, A549 cells were labeled with in-house antibodies; endogenous in cells; host or cells: A549
In words: FACS of non-permeabilized A549 cells labeled with anti-Shh antibodies. Format: binding. The note with it: A549, without membrane permeabilization. How it is done: A549, 293T or 293T (+pCMV Shh) cells were labeled with Sonic Hedgehog (Shh) antibody (Abcam 53281, 1:100) or therapeutic test antibodies (1:100) for 1 hour at RT post serum blocking. Following two PBS washes, a FITC-conjugated secondary antibody (Abcam 97029, 1:100) or an Alexa-Fluor 647 (Invitrogen, 1:1000) was used to label cells. Samples were screened by flow cytometry using an Accuri™ C6 machine (BD Biosciences). For fluorescence activated cell sorting, samples were sorted using an S3e™ Cell Sorter (Bio-Rad) and the Shh+ population was collected. For all experiments, cells processed without primary antibody served as a negative control. Experiments were performed in duplicates or triplicates.
To corroborate that the two anti-Shh antibodies, 1C11-2G4 and 1C11-2D9, recognize cell-surface expression of Sonic Hedgehog, A549 cells were labeled with in-house antibodies and sorted via Fluorescence Activated Cell Sorting (FACS) without membrane permeabilization. […] BMC Cancer. 15:84 (2015); Singh S, Trevino J, Bora-Singhal N, Coppola D, Haura E, Altiok S, Chellappan S P. EGFR/Src/Akt signaling modulates Sox2 expression and self-renewal of stem-like side-population cells in non-small cell lung cancer. Mol Cancer. 11:73 (2012); Cochrane C R, Szczepny A, Watkins D N, Cain J E. Hedgehog Signaling in the Maintenance of Cancer Stem Cells. Cancers (Basel). […]

Assay [3] has as its system NSCLC A549 cells. Kind of assay: CellTiter-Glo cell viability assay, A549. In kind it is cell-based, human. The note with it: 96 hours, compared with controls. How it is done: Logarithmically growing cells were plated in antibiotic-free medium supplemented with 2% fetal bovine serum at a density of 5,000 cells per well in clear-bottom 96-well plates. The next day cells were treated (triplicates) with increasing doses of in-house therapeutic antibodies (reconstituted in PBS) or PBS controls for 96 hours and subsequently assessed for cell viability by measuring ATP content with CellTiter-Glo Luminescent Cell Viability Assay (Promega). Signal intensity was measured on a Glomax™ 96 Microplate Luminometer (Promega) and percent cell survival was calculated based on the reading of PBS control cells set as 100%.

The subject of assay [4] is A549-derived NSCLC xenografts. In words: Antitumor efficacy in NSCLC A549 xenograft model (8 mg/kg). Format: in vivo, mice. The settings on record: 3 times a week for 3 weeks, versus control IgG. How it is done: 7-week old female nude mice (Jackson Laboratories) were injected with 10×10^6 NSCLC A549 cells in 50% matrigel in the flank region. […] 8 mg/kg therapeutic or control antibodies were administered three times a week for approximately 3 weeks. Tumor volumes were calculated using the formula (V=L×W^2) with recorded caliper measurements. At the end point, tumors were harvested, weighed and imaged. All animal procedures were performed under IACUC-approved protocols and guidelines.

B1: 2G4: purified mouse monoclonal C-terminal Shh antibody from hybridoma sub-clone 2G4 of clone 1C11, IgG1 kappa (antibody, V domains shown)
VH: EVKLVESGGGLVKPGGSLKLSCAASGFTFSSYTMSWVRQTPAKRLEWVATISSGGGNTYYPDSVKGRFTISRDNARNTLYLQMSSLRSEDTAMYYCARDYRSLFAYWGQGTLVTVSA
VL: QIVLTQSPAIMSASPGEKVTITCSASSSVSYMHWFQQKPGTSPKLWIYSTSNLASGVPARFSGSGSGTSYSLTISRMEAEDAATYYCQQRSSYPFTFGSGTKLEIK
As for B1, in assay [1], the “binding to Shh by Western blot” value is “bound to purified Shh”. Moreover, in assay [2], the “Shh+ cells recognized from a mixed population (FACS)” value was 0.11%. Further, the “A549 tumor cell proliferation / cell viability” value in assay [3] is recorded as “marginally stronger anti-proliferative capacity”. For the same molecule, in assay [4], the tumor volume entry is “significant reduction in tumor volume” and the “tumor weight of harvested tumors” value is reported as “decrease in tumor weight”.
